Source: PMC10845952, “Mass spectrometry and split luciferase complementation assays reveal the MecA protein interactome of Streptococcus mutans” (Microbiology Spectrum, 2024)

Target: T1, MecA fused to the RenG N-terminal domain (1-155) (S. mutans, UniProt Q8DW33 1-240)
T1 construct: adaptor protein MecA; S. mutans UA159; source: S. mutans, expressed in live cells; not shown: RenG luciferase N-terminal domain (1-155), C-terminal, kept
T1 sequence: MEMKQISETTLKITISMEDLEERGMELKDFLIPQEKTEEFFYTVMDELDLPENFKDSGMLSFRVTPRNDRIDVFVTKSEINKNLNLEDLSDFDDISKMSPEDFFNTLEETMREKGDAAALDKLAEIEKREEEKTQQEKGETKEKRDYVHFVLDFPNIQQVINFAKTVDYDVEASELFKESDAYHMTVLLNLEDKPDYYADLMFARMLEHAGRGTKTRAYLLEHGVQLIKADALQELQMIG
Assay: split reporter (BiFC, NanoBiT)
Details: partners not purified

B1: ClpC with the RenG C-terminal domain (156-314) fused to its N-terminus (natural protein, S. mutans, UniProt Q8DS14 1-813, looked up)
chain: MTDYSLKMQEVFRLAQFEAARFESSYLESWHVLLAMVEIDSSVAGLSFAEFEADVRFEDYQAAAILAIGKKPKSSSNDIMLLEQSHALKRTLAEAAAISQVTHAKEVGTEHVLFAMLLNPNLLATRILELVGFHAKDDGESIRLLDLRKVIERYAGFSKEDIKAIFEMRKPKKVKNSSSFSDLMKPPSVTGELADFTRDLTELARQGRLEPVIGREQEISRMVQILSRKTKNNPVLVGDAGVGKTALAYGLAQRIVDSAVPFELADMKVLELDMMSVVAGTRFRGDFEERMNQIIADIEADGHIVLFIDELHTIMGSGSGIDSTLDAANILKPALARGSLRTIGATTQEEYQKHIEKDAALSRRFAKVTIEEPSEEEAYQILLGLKKSYETYHHVIISDAAVMAAVKGAHRYLSGKNLPDSAIDLLDEASATVQGLVKKKAPAYLTDLDHALITNDYQLAKRLLKKEKKPLLKKRAEVKEEDILATLSKLSGIPVKKLTQADSKKYLNLERELHKRVIGQDDAVSSISRAIRRNQSGIRVGKRPIGSFMFLGPTGVGKTELAKALAEVLFDDESALIRFDMSEYMEKFAASRLNGAPPGYVGYEEGGELTEKVRNKPYSVLLFDEVEKAHPDIFNILLQVLDDGVLTDSRGRKVDFSNTIIIMTSNLGATALRDDKTVGFGAKSFSQDYKAMESRILEELKKVYRPEFINRIDEKVVFHNLGQEDIRHIVKIMVAPLIAHLADQGITLKFQPSALKHLALAGYDAEMGARPLRRTLQTEVEDKLAELILSGKLASGQTLKIGIQKEKLKFDIV
notes: also called N-ClpC
B1 was tested, and the “relative binding affinity (%)” value was 55.2 ± 4.16%.

B2: PheT fused to the RenG C-terminal domain (156-314) (natural protein, S. mutans, UniProt Q8CWX2 1-801, looked up)
chain: MLVSYKWLKELVDIDVPSHELAEKMSTTGIEVEGVDVPAEGLSKLVVGHVLSCEDVPETHLHLCQVDTGEEESRQIVCGAPNITAGIKVIVALPGARIADNYKIKKGKIRGMESLGMICSLQELGLPDSIIPKEYSDGIQILPEDAVPGESIFPYLDLDDEIIELSITPNRADALSMRGVAHEVAAIYDKSVHFEDKVLTESDKKAADLIKVAIASDKVLTYKARVVENVTIKPSPQWLQNLLMNAGIRPINNVVDVTNYVLLYFGQPMHAFDLDKFEGKDILARQAKAGEKLVTLDGEARDLIEEDLVITVADKPVALAGVMGGAATEIDASSKNVVLEAAVFDGKSVRKTSSRLNLRSESSSRFEKGVNYADVVKALDFAAAMLTELADGTVLAGQVSAGAVPTDDIQVSTSLDYVNVRLGTDLVFSDIESVFARLGFGLSGNDEKFTVSVPRRRWDISIQADLVEEIARIYGYDKLPTTLPEAAGTVGELTKTQKLRRKIRNLAEGSGLSEIISYALTTPEKAVAFTPNPTKITELMWPMTVDRSALRQNIVSGMLDTIAYNVARKSNNLALYEIGKVFEQTADPKKDLPKEIDTFAFALTGLVTEKDFQTAATPVDFFYAKGVLEAILAKLEITVQFVATKEMANMHPGRTALIERDGQVIGYLGQVHPQTAKLYDIPETYVAEVNLNALEAALKSDLVFEDITKFPAVSRDIALLLSEKVSHQDILDAIAASGVKRLIKVKLFDVYAGEKLGVGKKSMAYSLTFQNPNDNLTDEEVAKYMEKITSALTEKVGAEVR
notes: Phenylalanine-tRNA ligase subunit beta, PheT; S. mutans UA159; not shown: RenG luciferase C-terminal domain (156-314), C-terminal, kept
B2 was tested, and the “relative binding affinity (%)” value was 17.9 ± 0.77%.

B3: MnmG fused to the RenG C-terminal domain (156-314) (natural protein, S. mutans, UniProt Q8DRS6 1-631, looked up)
chain: MTHEFTENYDVIVIGAGHAGVEASLATSRMGCKTLLATINLEMLAFMPCNPSIGGSAKGIVVREIDALGGEMGKNIDKSYIQMRMLNTGKGPAVRALRAQADKALYARNMKHTVEQQENLTLRQSMIDEILVEDGKVIGVRTATNQKYSAQAVIVTTGTALRGEIILGELKYSSGPNNSLASVTLADNLRDLGLEIGRFKTGTPPRVKANSIHYDETEIQPGDKKANHFSFMSKDEDYLKDQIPCWLTYTNQSSHDIINKNLYRAPMFSGIVKGVGPRYCPSIEDKIVRFADKDRHQLFLEPEGRETEEVYIQGLSTSLPEDVQKDVVHSIKGLENAEMMRTGYAIEYDIVLPHQLRATLETKKISGLFTAGQTNGTSGYEEAAGQGIVAGINAALKIQGKPELILKRSDAYIGVMIDDLVTKGTLEPYRLLTSRAEYRLILRHDNADLRLTEIGHQVGLVNEERYMRFQIRKNQFDNELTRLSSIKLKPVAEINKRIEELGFKPLTDALTAKEFMRRPEINYAIATSFVGPAAESLDEKVIELLETEIKYEGYINKALDQVAKMKRMEEKRIPKNIDWDAIDSIATEARQKFKKINPETIGQASRISGVNPADISILMVYLEGKNRSRTR
notes: not shown: RenG luciferase C-terminal domain (156-314), C-terminal, kept
With B3 the “relative binding affinity (%)” value was 8 ± 0.33%.

B4: AlaS fused to the RenG C-terminal domain (156-314) (natural protein, S. mutans, UniProt Q8CWY0 1-872, looked up)
chain: MKQLTSAQVRQMWLDFWKSKDHAIEPSANLVPVNDPTLLWINSGVATLKKYFDGSVIPENPRITNAQKAIRTNDIENVGKTARHHTMFEMLGNFSVGDYFRDDAIKWGFELLTSPEWFDLPKDKLYMTYYPDDKDSYNRWIECGVDPSHLIPIEDNFWEIGAGPSGPDTEIFFDRGEDFDPDHIGVRLLAEDIENDRYIEIWNIVLSQFNADPAVPRSEYKELPHKNIDTGAGLERLVAVMQGAKTNFETDLFMPIIREIEKLSGKTYDQDGDNMSFKVIADHIRSLSFAIGDGALPGNEGRGYVLRRLLRRAVMHGRRLGINEPFLYKLVPTVGKIMESYYPEVLEKQDFIEKIVKREEETFARTIDAGSNMLDQLLADLKAADKDTLEGKDIFRLYDTYGFPVELTEELAEDAGFKIDHQGFQAAMKEQQERARANVVKGGSMGMQNETLSNITEKSTFNYEKEALDSSLSVIIADNKRIEAVSEGQVLLVFSETPFYAEMGGQVADHGLIKNDKGDTVARVTDVQKAPNGQALHTVDVLGSLSVGTTYHLEIDHERRNRVMKNHTATHLLHAALHNVIGNHATQAGSLNEVEFLRFDFTHFEAVTPEELRQIEEEVNQQIWKAIPVTTIETDLDTAKEMGAMALFGEKYGKNVRVVSIGDYSVELCGGTHLKNTSEIGIFKIVKEEGIGSGTRRILAVTSKEAFEAYRQEEDILKEIATTLKAPQMNQVANKVASLQDQLHKLQKENAELKEKAAAVAAGDIFKDVKEVNGLRYIASQVEVADAGALRTFADKWKQKDYSDVLVLVASIGKKVNVLVASKSKDIHAGNLIKALAPIVSGRGGGKPDMAMAGGSDASAIKDLIAAVAENL
notes: Alanine-tRNA ligase, AlaS; S. mutans UA159; not shown: RenG luciferase C-terminal domain (156-314), C-terminal, kept
B4 was tested, and the “relative binding affinity (%)” value was 5.5 ± 0.29%.

B5: IlvD fused to the RenG C-terminal domain (156-314) (natural protein)
chain: not shown
notes: Dihydroxy-acid dehydratase, IlvD; S. mutans UA159; not shown: RenG luciferase C-terminal domain (156-314), C-terminal, kept
With B5 the “relative binding affinity (%)” value was 13.1 ± 0.61%.

B6: GltB fused to the RenG C-terminal domain (156-314) (natural protein, S. mutans, UniProt Q8CWY8 1-478, looked up)
chain: MADPFGFLKYERKDNPYRPVNERIKDFEELQTTLSVEERQKQAARCMNCGIPFCHEGTFYGGGRAVSGCPNDNLIPEWNDLIYKGDFRRAFERLTRTNPLPEMTGRVCPAPCEKACTEGLNGSGVTIHDNERFIIDNAFEEGWVADSGRPIERTGFKVAVVGSGPAGLSAAWRLNQLGHSVTVFERSDRFGGLLMYGIPNMKLDKKIVQRRIDTMASIGINFVANTEIGRDITAEELLEKFDRVILATGASVPRDLDIPGRDLKGIRFAVDFLTETTKNLLDSDTHELPPLLEGKHVLVIGGGDTGNDCIGTAVRLGAASVRQLEITPQLPEKRLPTNPWPQYPMINRTGYGQEEADFVQQTDLTDYITSTVEFLGENGQVTAVKTIKVGPGFKAIEGTEEVIKADLVLLAMGFTGAEKALFDQFRVECVYDDYSTRNEKVFVAGDARRGPSLVIWGIREGRKTAEKIDQNLRMMVTE
With B6 the “relative binding affinity (%)” value was 7.45 ± 0.28%.

B7: TopA fused to the RenG C-terminal domain (156-314) (natural protein, S. mutans, UniProt Q8DUD3 1-705, looked up)
chain: MTSKTTTTVKKTSKKRATPKKNLVIVESPAKAKTIEKYLGRSYKVVASVGHIRDLKKSSMSIDFDNNYEPQYINIRGKGPLINSLKKEAKNAKQIFLASDPDREGEAISWHLAHILDLDLKGKNRVVFNEITKDAVKNAFVEPRQIDMDLVDAQQARRVLDRIVGYSISPILWKKVKKGLSAGRVQSVALKLIIDRENEIKAFKPEEYWSIDGFFKKGNKKFQANFYGLDNKKTKLKSNDDVKKVLTRIKNDDFLVDKVEKKERKRNAPLPYTTSSLQQDAANKINFRTRKTMMVAQQLYEGIRLGSNGQQGLITYMRTDSTRISPVAQNDAANYITEHFGAEYSKHGNHVRNASGAQDAHEAIRPSNVNHTPESIAKYLDKDQLKLYTLIWNRFVASQMTAAVFDTVKVNLTQNGVLFIANGSQIKFKGYMAVYNDSDKTKVLPEMIKGETVKKISANPEQHFTQPPARYSEASLIKTLEENGVGRPSTYAPTLETIQKRYYVRLVSKRFEPTELGEIVNSLIIEFFPDIVDVKFTAEMESKLDEVEIGKEEWQKVIDQFYKPFEKEVIKAEEQMEKIQIKDEPAGFDCDVCGHPMVIKLGRYGKFYACSNFPDCHNTKAITKEIGVICPICQKGQVIERKTKRNRIFYGCDRYPDCDFTSWNKPIGRDCPKSGDFLVEKKIRGGGKQVVCSNEECDYKEKAVK
In the case of B7, the “relative binding affinity (%)” value is reported as 8.64 ± 0.36%.
